Columns and labels:
[1] = target: T1, cynomolgus monkey CDH6 (full-length, on cells) (cynomolgus monkey, UniProt P55285 54-790 (human entry)); experiment: Cell-ELISA and flow cytometry screening of hybridoma supernatants on transfected cells
T1 construct: Expressed from pcDNA3.1-cynoCDH6 on transfected cells; also called cynoCDH6
T1 sequence: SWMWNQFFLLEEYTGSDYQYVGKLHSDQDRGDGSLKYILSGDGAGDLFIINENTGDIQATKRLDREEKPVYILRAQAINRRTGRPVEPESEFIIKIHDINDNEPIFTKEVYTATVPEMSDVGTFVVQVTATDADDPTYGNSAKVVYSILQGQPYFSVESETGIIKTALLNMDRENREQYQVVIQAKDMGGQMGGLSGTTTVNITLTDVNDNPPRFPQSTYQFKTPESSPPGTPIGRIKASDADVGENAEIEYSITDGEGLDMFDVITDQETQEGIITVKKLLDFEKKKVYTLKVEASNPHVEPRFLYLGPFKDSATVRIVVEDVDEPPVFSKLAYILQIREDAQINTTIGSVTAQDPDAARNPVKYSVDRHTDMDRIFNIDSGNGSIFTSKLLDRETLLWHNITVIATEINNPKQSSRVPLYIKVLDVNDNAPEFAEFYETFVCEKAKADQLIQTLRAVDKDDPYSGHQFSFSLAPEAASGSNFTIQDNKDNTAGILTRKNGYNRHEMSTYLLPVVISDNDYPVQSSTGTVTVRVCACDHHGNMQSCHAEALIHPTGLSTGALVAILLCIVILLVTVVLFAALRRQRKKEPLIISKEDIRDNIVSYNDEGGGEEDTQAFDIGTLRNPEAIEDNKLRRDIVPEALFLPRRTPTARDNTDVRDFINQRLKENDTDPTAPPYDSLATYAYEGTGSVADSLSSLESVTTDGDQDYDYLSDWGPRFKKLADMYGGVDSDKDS
Procedure: A coloring reaction was carried out with occasional stirring. Thereafter, 1 M HCl was added to the plate (100 μL/well) to terminate the coloring reaction, followed by measurement of the absorbance at 490 nm using a plate reader (ENVISION: PerkinElmer, Inc.).
The obtained cell suspension was used in flow cytometry analysis.
The binding specificity to cynomolgus monkey CDH6 of an antibody produced from the human CDH6- and cynomolgus monkey CDH6-binding antibody-producing hybridomas that had been selected by Cell-ELISA in Example 1)-4 was further confirmed by flow cytometry. […] Thereafter, the cells were suspended by the addition of the culture supernatant from each hybridoma. The cells were left standing at 4° C. for 1 hour. The cells were washed twice with PBS supplemented with 5% FBS, and thereafter, the cells were suspended by the addition of Anti-Rat IgG FITC conjugate (Sigma-Aldrich Co. LLC) that had been 500-fold diluted with PBS supplemented with 5% FBS. The cells were left standing at 4° C. for 1 hour. The cells were washed twice with PBS supplemented with 5% FBS, and then re-suspended in PBS supplemented with 5% FBS and 2 μg/ml 7-aminoactinomycin D (Molecular Probes, Inc.), followed by detection using a flow cytometer (FC500; Beckman Coulter, Inc.).

[2] = target: T2, EC3-deleted human CDH6 (EC3 deletion mutant, on cells) (human, UniProt P55285 54-790); experiment: flow cytometry, 293α cells transiently expressing EC3-deleted hCDH6 (open) against untransfected cells (shaded), anti-rat IgG-FITC [4]
T2 construct: Full-length human CDH6 lacking EC3; Cloned in p3xFLAG-CMV-9; also called EC3-deleted hCDH6
T2 sequence: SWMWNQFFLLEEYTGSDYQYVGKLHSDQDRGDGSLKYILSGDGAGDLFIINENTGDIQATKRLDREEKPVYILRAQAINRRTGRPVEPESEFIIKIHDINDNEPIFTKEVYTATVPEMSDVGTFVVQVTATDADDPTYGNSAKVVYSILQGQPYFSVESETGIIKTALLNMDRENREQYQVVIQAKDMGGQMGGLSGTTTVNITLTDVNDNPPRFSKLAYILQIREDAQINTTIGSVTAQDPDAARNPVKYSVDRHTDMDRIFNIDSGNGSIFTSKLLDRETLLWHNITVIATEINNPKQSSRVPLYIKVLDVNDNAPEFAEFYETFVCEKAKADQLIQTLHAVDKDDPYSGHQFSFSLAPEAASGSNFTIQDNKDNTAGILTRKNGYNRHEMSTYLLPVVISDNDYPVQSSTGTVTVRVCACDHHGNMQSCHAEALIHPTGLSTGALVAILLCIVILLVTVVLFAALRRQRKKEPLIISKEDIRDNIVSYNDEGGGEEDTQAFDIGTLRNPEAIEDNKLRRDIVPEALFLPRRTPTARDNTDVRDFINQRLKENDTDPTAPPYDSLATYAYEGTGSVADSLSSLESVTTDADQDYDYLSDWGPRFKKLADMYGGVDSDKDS
Procedure: The cells were cultured overnight under conditions of 37° C. and 5% CO₂, treated with TrypLE Express (Thermo Fisher Scientific Inc.), and thereafter, a cell suspension was prepared. […] Thereafter, the cells were suspended by the addition of the anti-CDH6 monoclonal antibody (clone No: rG019), which had been prepared in Example 1)-7, or rat IgG control (R&D Systems, Inc.) (final concentration: 20 nM). The cells were left standing at 4° C. for 1 hour. The cells were washed twice with PBS supplemented with 5% FBS, and then suspended by the addition of Anti-Rat IgG (whole molecule)-FITC antibody produced in rabbit (Sigma-Aldrich Co. LLC) that had been 50-fold diluted with PBS supplemented with 5% FBS. The cells were left standing at 4° C. for 1 hour. The cells were washed twice with PBS supplemented with 5% FBS, followed by detection using a flow cytometer (Canto II; BD Biosciences). The data was analyzed using FlowJo (TreeStar, Inc.). In the histograms of FIGS. 2-1 to 2-2, the abscissa depicts FITC fluorescence intensity indicating the amount of the antibody bound, and the ordinate depicts cell count. […] Fluorescence intensity is enhanced when the antibody binds to full-length hCDH6 or each EC domain deletion mutant on the surface of cells.

binding result [1]: binds
binding result [2]: no binding (tested: 20 nM)
B1: rat anti-CDH6 monoclonal antibody rG019 (antibody, IgG2b, V domains shown)
VH: QVQLQQSGAELVKPGSSVKISCKASGYTFTRNFMHWIKQQPGNGLEWIGWIYCGDGETEYNQKFNGKATLTADRSSSTAYMELSRLTSEDSAVYFCARGVYGGFAGGYFDFWGQGVMVTVSS
VL: DIQMTQSPSLLSASVGDRVTLNCKASQNIYKNLAWYQQKLGEGPKLLIYDANTLQTGIPSRFSGSGSGSDFTLTISSLQPEDVATYFCQQYYSGWAFGGVTNLELKRA
notes: Rat antibody purified from hybridoma supernatant; also called rG019 antibody; clone rG019

Reference: patent US20220016257A1 (Daiichi Sankyo, published 2022)
